The DeepSol protein solubility set

Experiment: soluble on expression in E. coli; label from the status in PepcDB or PDB records

| Sequence | soluble on expression in E. coli |
| --- | --- |
| MTYPIPKPREKSRWPNLSQGSLPLALARYLPHKRLKVVLTQDAEQALRLQTAWRFFRPHDTAVFLPDWETLPYERFSPHQDLVSERLSALWQIKSGAADVLFVPVATAMQKLPPVPFLAGRTFWLKTGQTLDIGRLKSDLVDAGYNHVSHVVAAGEFAVRGGIVDLFPMGSEMPYRIDLFDDEIDSIKTFDTETQRTISPVSEIRLLPAHEFPTDSEAQKIFRSRFREEVDGNPNDAAVYKAVSNGHFGAGVEYYLPLFFENELETLFDYIGEDALFVSLDDVHAEANRFWSDVKSRYAMAQGDETYPPLLPQYLYLSADVFAGRLKNYGQVLPDVSGKEYTLPDLAVNRQADEPLQALKDFQTAFDGRILLCAESLGRRETMLGFLQQNGLKAKPVSDWQGFLSAHEPLMITVAPLAYGFKLGGLQSPNQQQPTPSPVGEGWGEGKAVAAQTEFSAAAINPLPSPLPQEREQSAAAVSDSLKAAAVSTESSLPLGTSNLHGQIRQQPAPSPVGEGWGEGKAVAAQTEFPASATNPLPSPLPQEREQSAAAVSDDLKTKSSLHPVANNLHGQIRQQPTPSPVGEGWGEGKAVAAQTEFSAAATNPLPSPLPQEREQSAAVVSDSLKAAAVSTESSLPPGKSNLHGQIQQQPAPSPVGEGWGEGKAVAAQSAIAVITESDLYQYVARSRIHNRRKKHAAVSDGLLRDLAEINIGDPVVHEEHGIGRYMGLVTMDLGGETNEMMLLEYAGEAQLYVPVSQLHLISRYSGQAHENIALHKLGSGAWNKAKRKAAEKARDTAAELLNLYAQRAAQSGHKFEINELDYQAFADGFGYEETEDQAAAIAAVIKDLTQAKPMDRLVCGDVGFGKTEVALRAAFVAVMGGKQVAVLAPTTLLVEQHAQNFADRFADFPVKVASLSRFNNSKATKAALEGMADGTVDIVIGTHKLVQDDIKFKNLGLVIIDEEHRFGVRQKEQLKRLRANVDILTMTATPIPRTLSMALEGLRDFSLITTAPSRRLAVKTFVKPFSEGSVREAVLRELKRGGQVFFLHNEVDTIENMRERLETLLPEARIGVAHGQLRERELEQVMRDFLQQRFNVLLCSTIIETGIDIPNANTIIINRADKFGLAQLHQLRGRVGRSHHQAYAYLLTPEYITKDAEKRLDAIAAADELGAGFTLAMQDLEIRGAGEILGEGQSGEMIQVGFTLYTEMLKQAVRDLKKGRQPDLDAPLGITTEIKLHSPALLPEDYCPDIHERLVLYKRLAVCETVQQINTIHEELVDRFGLPEQPVKTLIESHHLRLMAKELGIDAIDAAGEAVTVTFGKNNNVDPTEIILLIQNDKKYRLAGADKLRFTAEMENIEVRINTVKNVLKTLQNRCLPK | not soluble |
| MGSDKIHHHHHHVSIPANNSPVRLALIGAGRWGKNYIRTIAGLPGAALVRLASSNPDNLALVPPGCVIESDWRSVVSAPEVEAVIIATPPATHAEITLAAIASGKAVLVEKPLTLDLAEAEAVAAAAKATGVMVWVEHTQLFNPAWEALKADLTSIGPILAVRSEAGNHGPYRPGGVPMLWDWGAHDVSMVLDLMGRDPDSTSASWAARGEKDGGEAGDVTLTLAFSTVEAHIRLCNTMDKCRRLAVFGEAGTLVMDDRATDKLTLHPPQPDGNWPVGQGHALTVTDEMPLTRAVRLFAGAVRQPEPGPSPLELGLRVVRVLGACS | not soluble |
| GAEKEDLVQEGILGLLKAIKFYDETKSSFSSFAFLCIRREMISAIRKANTQKHMVLNEALKTNAILEDSAYFDDEGHNINNYKSSESNPEEAYLLKEEIEEFKKFSENNFSKFEKEVLTYLIRGYSYREIATILSKNLKSIDNTIQRIRKKSEEWIKEEENIKR | soluble |
| MDIVDEKWEEYLKNLDEMSKSALLETFNIGASHAATALSEMTGKEVNISVPDLKIIAIKNVPEVVGEDVKVAVYIELGKDFSSHAFFIADYEDALRMFDIIMGNPLGTTKEMDEMVKSSFMEVGNILISAFANALSEFLGITIEQTPPSLAIDFLPAILDFALADIGKYCDYTIILQTNIKISDVKFEEHFLLFPKPEDMKKILEKLLGGFA | soluble |
| FKIETTPESRYLAQIGDSVSLTCSTTGCESPFFSWRTQIDSPLNGKVTNEGTTSTLTMNPVSFGNEHSYLCTATCESRKLEKGIQVEIYSFPKDPEIHLSGPLEAGKPITVKCSVADVYPFDRLEIDLLKGDHLMKSQEFLEDADRKSLETKSLEVTFTPVIEDIGKVLVCRAKLHIDEMDSVPTVRQAVKELQVYISPKNT | soluble |
| MAHHHHHHMSSAVVKPSNGEMPKTKEQKEMKNEYQVETNKELQVNLNFHNNNIISNIFSNLSLFDYLTNIFTINKKTYMLKYCNKLNEDNFYISYFQKENDKFAQISPWHDIDLMNEDGTYNMVVEITKYNYIKLEIQLKENFNVIKQDTKKGKLRYYHNSIYWNYGALPRTYEYPKHIYTCQTGDNQDLFFTGDDDPLDVVDVGQNSLKMGQVVPVKVGSMQSHMTYM | not soluble |
| ADYVLAIDQGTTSSRAIVFDHSGEIYSTGQLEHDQIFPRAGWVEHNPEQIWNNVREVVGLALTRGNLTHEDIAAVGITNQRETAVVWDKTTGKPVYNAIVWQDTRTQKIVDELGGDEGAEKYKSIVGLPLATYFSGPKIKWILDNVEGAREKAEKGDLLFGNTDTWVLWNMTGGTEGGVHVTDVTNASRTMLMDLDTLSWREDIAADMGIPLSMLPDIRSSSEVYGHGRPRGLVPGVPIAGILGDQQAATFGQACFEVGQAKNTYGTGNFLLLNTGTEKVMSKNGLLTTVCYKIGDAPAVYALEGSIAVTGSLVQWLRDNLGMFEDAPDVEWLAGKVQDNGGAYFVPAFSGLFAPYWRPDARGALVGLTRYVNRNHIARAALEATAFQSREVVDAMNADSGVDLTELRVDGGMVANELLMQFQADQLGVDVVRPKVAETTALGAAYAAGIAVGFWKGEQDVIDNWAEDKRWSPSMESGERERLYRNWKKAVTKTMEWVDEDVEQ | soluble |
| MGSDKIHHHHHHMIVNQANLQGIYKSFNTIFNQAFDAAPSQWPLVAMQVPSTGRSVDYKWLGDFPMMREWLGDRVLKDLSAFKYEITNKDYESTIEVDRNDIDDDQIGVYTPMIQGLAQAAKVHPDILVFALLKAGFDTGCFDGQYFFDSDHSVNGASVSNTGGGDGTPWYLLDLSRPIKPIVLQIRKRPQFVAMDKPDDENVFMRKKFRYGVDDRKNVGYGLWQLAYGSKQTLDATNYAAARAAMMAFTNDEGVPLGITPTHLVVPPTLESNGRTVVEAQFDANGASNVWYNTAKLVVVPWLA | not soluble |
| MLMIKGIIFDMDGVLFDTEPFYLRRREDFFKTKGIPIDHLNSKDFIGGNLQELWKELLGKNRDDAIVKAITTDYDAYKQAHKPPYQKLLITEVNSCLEQLEKQGIKLAVASNSKRQDVLLALETTQIKDYFEIILAREDVSRGKPYPDIYNKAVQKLGLQKKQLLVVEDSQKGIAAAKAANLTVFAITDYRYGIDQSQADHKIDHLGQLCVKIGCFGS | not soluble |
| MGREFIPLFEDWAATYDQTVQGLDIQYKEAFRGYDHILDAIVRKSGTHVLEFGPGTGNLTAKLLDAGKTVFGIEPSPAMRKLASDKLSGRTEIVDGDFLTFPEPPFQADTIVSSYAFHHLTDEEKRAAIKQYGKYLHLHDKIVFADTVFENAQAYQQAIDKARSQGFYQLANDLETEHYPTLDALKEMFTAEGFAVRFTQQNDFVWIMEAIKRLEHHHHHH | not soluble |
| MRLGICSHTLCPPIEGNIKQHLHNPMKEEEFNELKQNLDSYTPLLPESVTDYFMEKAGVVTSDQSVKKLVSLLAHKFVTDIAVSSFQYHRINQKAAQKDKRFAKEKKPTFQLVDLEKALEEVGISISRPHYYM | not soluble |
| MSLDFDADTPVVGMVHLSPLPGAPGYDDGNRPAIRDAALRDASRLEAGGVDALLVENFGDAPFYADDVPKHVVASMAALVRDITREAEVPVGVNVLRNDAEAAVSIAAAADADFVRVNVHTGARLTDQGVVGGQAAETVRLRDRLDAAEVSMLADIDVKHSAALAERPLSEGVAELLERGHADGVIASGAGTGHATDHDHLQAVVDARDRLDADAPVFVGSGVTQETVGATLDLADGAIVGTALKQNGETTAPVDGDRVRALVDAAR | not soluble |
| MGSDKIHHHHHHMNTDARMGAGVSLKAEHYDQALACNLEGLWFEVHPENYMVGGPRLAWLNRIAERHPVSLHGVALSLAADAAPDQDHLQRLRALCDQIEPVLVYYHLAWSTWQGHYHPDLLPFPRSNEALQRIAENIQRCQEVLGRRISIENPSHYLQLQGHEWDEIDFLGELTRRTGCGLLLDINNVYVSAHNLGFSATAYLDRFPAQAITEVHLAGHSDDDQGSLLIDSHDAQVAEPVWALYRKLVSRVGPRPTLIERDDKLPPFTELLAERSIAQSIMTCPGVLP | not soluble |
| MLFMIEVEIFPHRYLKASTTEKFLNKIYDLKTVERVVIHGQPLPKVITYGPARGLPVNHTERKIIHVKGVPVELTVMAGRFWITLSDDSELDKLDEICKEMFPFGYNLRVGKFLKDRPTVTDYIKYGEDGVFLINEMDRRLIGMVDPRSRMANLEHHHHHH | not soluble |
| MGIKKKYGEGKMDIKPIRKKRVYQAIIEQIQQFIRQGQLKPGDKLPSERDLAEKFQVSRTTIKEAIAVMEAIGVLEIRPGVGTFVRETGNHFLDLNYIFGDDDTEIQELMEFRQAIEVEAAYYAAIRGTEDGKRKLTQLFSELEKEVMSGKLPAKSDFSFHMQISSMSQNALFLRIMEFISDKLFKSVTKNAVNTFAGAGDPVRVLQEHRAIYEAILSGDGVKARQAMRYHLESVIARYKGI | soluble |
| QDLLLSYKGKLKNDSIEGEFRQGRFGTMMSLYRGLDAAKPYRPQTPVPPFPYDVTDVKILHKTGGFTIAGTLTAPKDANKTKGTVILISGSGLQDRDETIFGHKPFAVLADQLTRHGYAVLRCDDRGFGESAGDASQATTDTLAGDIESELAYLRQHYPRLTDKVFLIGHSEGGIIAPMVARRVGGIAGLVLVGAPSVKGAEILLSQNAAMDEFATGQPQSQAKRAALEELIRQATAPGDTSDIRTRIESYCRSNASVLFPQAMTDEMKEQGIKLMTEQLYTPWMRHFLTYDPAPLLDVTSGEGSHPLPPTMAIYGGRDKQVLHEVNMSKMKSLLGIETGNTTNKVVYLPEVNHIMQPAEFGTPDEYAFLNRTVDTELMEIVCSFLDSL | not soluble |
| MGSDKIHHHHHHMSRTLIIYSTVDGQTKAICDQIAEQCKSDTQPVTMVSLEEAQSVNLSYFDKVIIGASIRYGKHRPELFQYVNRHRAVLNGKKNAFFTVNVVARKPEKNTPETNPYMKKFLQLSLWQPQQLGVFAGKIDYPKYRFFDKFMIRFIMWITKGPTDTSGTYEFTDWDKVQEFAKAFSER | not soluble |
| MAENFQLPYLSLQNEKVDMVFDLFNKTIRNGEKVTFAFSGGKDSTTLAILFYEWLKIRHDIECTITLLHNDTSSEIDPMENWARNFMTSYKTEIEDITEGRVKINIDIRTPKVIDTFYWRMLIRGYPAPSFNFRWCVHLLKEKPANLDSIEETMFTGLREAESSERRILMRKKYGNSCSASPGGCMAYYYSTEGKGNKVAPMRDWTDGDVWSFLTLYRNTGGINISPIFMLYPNPKVRYGCWHCTLASVQWGLQSLGGGLEYFEAVRILYRKFSDLPYLRIKKNTGYSKLGPLNAAGRALMLKSIALAEDLSNVKLYGLDINLLEGKSIRDILFNLDPKEATALIKKYDPNIPRFRYIPIDKIRNIQKYKELALRALIDVKRNCANDKAYILLDTKLENPLITLLNRIEDLLS | not soluble |
| MSLNFTALDFETANTHKTSICAVGMAIVEDGKVVKTISKLIKPVPDFYSYWNVQIHGITPDMTADAPYFIDVWQELKQYIDYSTLVAHNAAFDVGALRSILTTHEVSFPKTDYFCSCSVSRKVFKEIENHKLSTVCRHIDVPLNHHEAESDAIGAAQIIIKAGERLGANSIEELMAMLKMKLKVEGHHHHHH | not soluble |
